In one series the target is T1, CYP 3A4 (Homo sapiens, UniProt P08684).
T1 construct: NADPH regenerating system
The series can be described thus: Rate of hydroxylation of BOM-09B by CYP 3A4. The class given is biochemical. The protocol: The racemic compound mixture (designated BOM-09B) was tested for activity with cytochrome P450 isozymes. […] The CYP 3A4 assay was performed in a 96-well plate at 37° C. in a volume of 100 μL/well. BOM-09B was diluted from a stock solution of 1 mM in acetonitrile to a 4×concentration of 80 μM in 100 mM K+ phosphate buffer of which 25 μl was added to the appropriate wells. […] The cytochrome P450 isozyme CYP3A4 was diluted to give a 2 pmol enzyme per well. Enzymic conversion of the substrate to products was allowed to proceed for 1 hour with fluorescence reads taken every 4 minutes on a fluorescence microtiter plate reader. The solution was illuminated with an 395/25 nm excitation filter and fluorescence emission was detected through a 460/40 nm the emission filter.

A further series has as its target CYP 2D6 (Homo sapiens, UniProt P10635). The series can be described thus: in vitro. The procedure: CYP 2D6 was incubated with 10 μM concentrations of various known inhibitors and drug substrates and residual CYP 2D6 activity assayed with the fluorogenic substrate MOBFC. The assay was performed in a 96-well plate at room temp and at a volume of 100 μl/well. 4×enzyme buffer was prepared and 25 μl was added to each well on the plate, for final assay concentrations of 3.3 mM glucose-6-phosphate, 0.4 units/ml glucose-6-phosphate dehydrogenase and 10 mM MgCl2 in 100 mM K+ phosphate, pH 8.0. […] Six consecutive 1:3 dilutions were made and 50 μl of each was added to appropriate wells on the assay plate. The CYP2D6 was diluted to a solution of 2 pmol/10 μl in 100 mM K+ phosphate and 10 μl was added to each well. 20 μl of buffer was added to each well containing standard. The drug inhibitors were allowed to pre-incubated with the CYP 2D6 enzyme for 1 hr prior to the addition of the MOBFC substrate. […] Hydroxy-trifluoro-methylcoumarin was diluted to 100 μM in K+ phosphate buffer, and seven consecutive 1:2 dilutions were made. 10 μl of each dilution was added to the appropriate wells on the plate containing 90 μl of 100 mM K+ phosphate, pH 8.0.

Substrate in series [1]: COc1ccc2c(C(F)(F)F)cc(=O)oc2c1
As to the kind of experiment: Kinetics of fluorogenic substrates with CYP 2D6. The class given is biochemical, human. To be noted: other: CYP 2D6.

Substrate in series [2]: COCOc1ccc2c(C(F)(F)F)cc(=O)oc2c1
As to the kind of experiment: Kinetics of fluorogenic substrates with CYP 2C9. The series is classed as biochemical, human. To be noted: other: CYP 2C9.

Substrate in series [3]: COc1ccc2c(C(F)(F)F)cc(=O)oc2c1
As to the kind of experiment: Kinetics of fluorogenic substrates with CYP 2C9. The class given is biochemical, human. Conditions: other: CYP 2C9.

Substrate in series [4]: N#Cc1cc2ccc(OCOCc3ccccc3)cc2oc1=O
As to the kind of experiment: Kinetics of fluorogenic substrates with CYP 2C9. To be noted: other: CYP 2C9. The series is classed as biochemical, human.

T1 sequence (P08684 whole entry): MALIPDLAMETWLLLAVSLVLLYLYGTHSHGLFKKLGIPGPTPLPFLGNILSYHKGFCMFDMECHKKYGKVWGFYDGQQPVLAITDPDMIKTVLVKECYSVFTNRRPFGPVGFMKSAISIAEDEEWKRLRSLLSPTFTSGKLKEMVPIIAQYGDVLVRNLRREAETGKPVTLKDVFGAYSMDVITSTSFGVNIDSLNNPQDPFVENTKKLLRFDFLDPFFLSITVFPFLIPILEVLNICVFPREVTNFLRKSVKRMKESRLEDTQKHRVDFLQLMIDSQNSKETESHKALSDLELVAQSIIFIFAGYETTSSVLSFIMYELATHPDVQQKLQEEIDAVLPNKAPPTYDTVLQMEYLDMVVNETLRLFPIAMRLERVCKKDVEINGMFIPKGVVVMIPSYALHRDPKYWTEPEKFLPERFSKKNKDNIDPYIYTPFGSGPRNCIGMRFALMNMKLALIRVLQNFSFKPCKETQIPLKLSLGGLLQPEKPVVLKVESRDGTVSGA

For `NC1CCCCC1NC(=O)c1cc2ccc(OCOCc3ccccc3)cc2oc1=O` (racemic) [BOM-09B], the “activity with the CYP 3A4 isozyme” value at CYP 3A4 is recorded as “particularly high activity”. Moreover, the conversion rate on CYP 3A4 (37° C., pH 8.0, 1 hour) is reported as 0.75 pmol substrate/pmol enzyme·min. Also, the “rate of conversion compared with BOMCC” value at CYP 3A4 (identical conditions) is listed as “half that of BOMCC”.

In the case of `CC(C)NC[C@H](O)COc1cccc2ccccc12` (racemic) [Propanolol], the Ki at CYP 2D6 (human, cyp 2d6, pH 8) was greater than 30 µM.

With `CCC1C2CC3C4N(C)c5ccccc5C45CC(C2C5O)N3C1O` (centres unmarked) [Amjaline], the Ki on CYP 2D6 is greater than 30 µM.

B1: CYP 2D6 (Homo sapiens) (protein)
chain: MGLEALVPLAVIVAIFLLLVDLMHRRQRWAARYPPGPLPLPGLGNLLHVDFQNTPYCFDQLRRRFGDVFSLQLAWTPVVVLNGLAAVREALVTHGEDTADRPPVPITQILGFGPRSQGVFLARYGPAWREQRRFSVSTLRNLGLGKKSLEQWVTEEAACLCAAFANHSGRPFRPNGLLDKAVSNVIASLTCGRRFEYDDPRFLRLLDLAQEGLKEESGFLREVLNAVPVLLHIPALAGKVLRFQKAFLTQLDELLTEHRMTWDPAQPPRDLTEAFLAEMEKAKGNPESSFNDENLRIVVADLFSAGMVTTSTTLAWGLLLMILHPDVQRRVQQEIDDVIGQVRRPEMGDQAHMPYTTAVIHEVQRFGDIVPLGVTHMTSRDIEVQGFRIPKGTTLITNLSSVLKDEAVWEKPFRFHPEHFLDAQGHFVKPEAFLPFSAGRRACLGEPLARMELFLFFTSLLQHFSFSVPTGQPRPSHHGVFAFLVSPSPYELCAVPR
For B1, in series [1], the Km was 10.0 µM and the kcat/Km is 417 M⁻¹ s⁻¹.

B2: CYP 2C9 (Homo sapiens) (protein)
chain: MDSLVVLVLCLSCLLLLSLWRQSSGRGKLPPGPTPLPVIGNILQIGIKDISKSLTNLSKVYGPVFTLYFGLKPIVVLHGYEAVKEALIDLGEEFSGRGIFPLAERANRGFGIVFSNGKKWKEIRRFSLMTLRNFGMGKRSIEDRVQEEARCLVEELRKTKASPCDPTFILGCAPCNVICSIIFHKRFDYKDQQFLNLMEKLNENIKILSSPWIQICNNFSPIIDYFPGTHNKLLKNVAFMKSYILEKVKEHQESMDMNNPQDFIDCFLMKMEKEKHNQPSEFTIESLENTAVDLFGAGTETTSTTLRYALLLLLKHPEVTAKVQEEIERVIGRNRSPCMQDRSHMPYTDAVVHEVQRYIDLLPTSLPHAVTCDIKFRNYLIPKGTTILISLTSVLHDNKEFPNPEMFDPHHFLDEGGNFKKSKYFMPFSAGKRICVGEALAGMELFLFLTSILQNFNLKSLVDPKNLDTTPVVNGFASVPPFYQLCFIPV
Regarding B2, in series [2], the Km is 14.9 µM and the kcat/Km worked out at 157 M⁻¹ s⁻¹. Also, in series [3], the Km came out at 103.0 µM, the kcat stood at 0.0067 s⁻¹ and the kcat/Km was 70 M⁻¹ s⁻¹. In addition, in series [4], the Km was found to be 3.0 µM and the catalytic efficiency (kcat/Km) was 814 M⁻¹ s⁻¹.

These data come from patent publication US6143492A, “Optical molecular sensors for cytochrome P450 activity” (Aurora Biosciences Corporation, priority 1999, dated 2000).
